Key:
[1] = biological target: T1, SARS-CoV-2 Wuhan-Hu-1 RBD (SARS-CoV-2 Wuhan-Hu-1, UniProt P0DTC2); assay: BLI; conditions: both partners purified
[2] = biological target: T1, SARS-CoV-2 Wuhan-Hu-1 RBD; assay: ELISA; conditions: both partners purified

B1: V065 (antibody, V domains shown)
VH: QVQLVQSGAEVKKPGASVKVSCKASGYTFTSYGISWVRQAPGQGLEWMGWINTDNGNTKNAQKVQGRVTMTTDTSTSTAYMELRSLRSDDTAVYYCARGGTVGAPPIEYWGQGTLVTVSS
VL: QSALTQPASVSGSPGQSITFSCTGTSSDVGGYNYVSWYQQYPGKAPKLLIYDVTNRPSGVSDRFSGSKSGNTASLTIFGLQAEDEADYYCSSFTSSNTRVFGTGTKVTVL
notes: IgG; donor BRA15
Does B1 bind [1]?
Result: no binding (tested: 100 µg/ml RBD)

B2: V021 (antibody, V domains shown)
VH: QVQLQESGPGLVKPSQTLSLTCTVSGGSISSGSYYWSWIRQPVGKGLEWIGRIYTSGSTNYNPSLKSRVTISVDTSKNQFSLELSSVTAADRAVYYCARESSPASIPVRGVIWWFDPWGQGTLVTVSS
VL: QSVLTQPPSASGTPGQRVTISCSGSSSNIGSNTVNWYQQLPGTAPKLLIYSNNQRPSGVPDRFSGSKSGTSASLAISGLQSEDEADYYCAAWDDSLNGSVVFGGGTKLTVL
notes: IgG; donor BRA13
Does B2 bind [2]?
Result: no binding

B3: V052 (antibody, V domains shown)
VH: EVQLVESGGGLVQPGGSLRLSCAASGFTVSSKYMNWVRQAPGKGLEWVSVIYIGGSTDYADSVKGRFTISRDNSKNTLYLQMNSLRVEDTAVYYCARDGWDYELVFWGQGTLVTVSS
VL: DIQMTQSPSSLSASVGDRVTITCRASQGIRNDLGWYQQKPGKAPKRLIYAASSLQSGVPSRFSGSGSGTEFTLTISSLQPEDFATYYCLQHNSYPRWTFGQGTKVEIK
notes: IgG; donor BRA15
Does B3 bind [1]?
Result: no binding (tested: 100 µg/ml RBD)

Reference: paper PMC9270183 (The Journal of Experimental Medicine, 2022)
